We go through one molecule from US20200283487A1 (UNIVERSITY OF SOUTHAMPTON, published 2020).

In the experiment the target is T1, BSA (UniProt P02769 25-607).
T1 construct: Negative control analyte on the Biacore chip; also called BSA negative control
Briefly: SPR (Biacore), rfhSP-A immobilised to ~700 RU, BSA as soluble analyte. For orientation: Surface plasmon resonance follows binding to a sensor surface in real time, without labels.

T1 sequence (P02769 25-607 limits assumed): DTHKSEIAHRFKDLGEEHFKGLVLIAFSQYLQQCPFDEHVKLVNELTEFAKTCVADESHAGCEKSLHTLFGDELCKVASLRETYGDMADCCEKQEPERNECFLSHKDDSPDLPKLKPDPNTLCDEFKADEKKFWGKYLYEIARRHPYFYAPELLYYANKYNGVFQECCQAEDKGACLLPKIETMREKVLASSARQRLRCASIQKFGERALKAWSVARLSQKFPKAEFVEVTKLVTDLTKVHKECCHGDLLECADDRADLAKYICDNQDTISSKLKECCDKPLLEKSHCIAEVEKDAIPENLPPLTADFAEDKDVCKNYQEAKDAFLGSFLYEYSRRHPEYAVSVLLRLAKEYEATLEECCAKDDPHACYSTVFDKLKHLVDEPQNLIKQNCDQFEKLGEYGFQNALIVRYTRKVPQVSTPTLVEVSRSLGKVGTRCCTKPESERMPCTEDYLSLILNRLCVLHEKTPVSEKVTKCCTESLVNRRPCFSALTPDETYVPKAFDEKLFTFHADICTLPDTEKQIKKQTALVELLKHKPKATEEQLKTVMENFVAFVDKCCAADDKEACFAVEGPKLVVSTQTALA

B1: rfhSP-A (recombinant fragment of human surfactant protein A; truncated SP-A polypeptide) (other)
chain: not shown
notes: C-type lectin (collectin) fragment; also called rhfSP-A; trimeric rfhSP-A
Take B1: the binding result was “no binding”.
